Reference: patent US20240376214A1, “ANTI-C-MET ANTIBODIES AND ANTIBODY-DRUG CONJUGATES” (BYONDIS B.V., priority 2021, published 2024)

How the values were obtained:
[1] = target: T1, human c-Met (HGFR), full length, on the cell surface (human, UniProt P08581 25-1390); experiment: flow cytometry, NCI-H596 cells; EC50 with 50 ng/mL HGF against EC50 without HGF
T1 construct: Endogenous c-Met on human tumor cell lines MKN45, NCI-H596, PC-3 and HepG2; also called hepatocyte growth factor receptor; mesenchymal-epithelial transition factor
T1 sequence (P08581 25-1390 limits assumed): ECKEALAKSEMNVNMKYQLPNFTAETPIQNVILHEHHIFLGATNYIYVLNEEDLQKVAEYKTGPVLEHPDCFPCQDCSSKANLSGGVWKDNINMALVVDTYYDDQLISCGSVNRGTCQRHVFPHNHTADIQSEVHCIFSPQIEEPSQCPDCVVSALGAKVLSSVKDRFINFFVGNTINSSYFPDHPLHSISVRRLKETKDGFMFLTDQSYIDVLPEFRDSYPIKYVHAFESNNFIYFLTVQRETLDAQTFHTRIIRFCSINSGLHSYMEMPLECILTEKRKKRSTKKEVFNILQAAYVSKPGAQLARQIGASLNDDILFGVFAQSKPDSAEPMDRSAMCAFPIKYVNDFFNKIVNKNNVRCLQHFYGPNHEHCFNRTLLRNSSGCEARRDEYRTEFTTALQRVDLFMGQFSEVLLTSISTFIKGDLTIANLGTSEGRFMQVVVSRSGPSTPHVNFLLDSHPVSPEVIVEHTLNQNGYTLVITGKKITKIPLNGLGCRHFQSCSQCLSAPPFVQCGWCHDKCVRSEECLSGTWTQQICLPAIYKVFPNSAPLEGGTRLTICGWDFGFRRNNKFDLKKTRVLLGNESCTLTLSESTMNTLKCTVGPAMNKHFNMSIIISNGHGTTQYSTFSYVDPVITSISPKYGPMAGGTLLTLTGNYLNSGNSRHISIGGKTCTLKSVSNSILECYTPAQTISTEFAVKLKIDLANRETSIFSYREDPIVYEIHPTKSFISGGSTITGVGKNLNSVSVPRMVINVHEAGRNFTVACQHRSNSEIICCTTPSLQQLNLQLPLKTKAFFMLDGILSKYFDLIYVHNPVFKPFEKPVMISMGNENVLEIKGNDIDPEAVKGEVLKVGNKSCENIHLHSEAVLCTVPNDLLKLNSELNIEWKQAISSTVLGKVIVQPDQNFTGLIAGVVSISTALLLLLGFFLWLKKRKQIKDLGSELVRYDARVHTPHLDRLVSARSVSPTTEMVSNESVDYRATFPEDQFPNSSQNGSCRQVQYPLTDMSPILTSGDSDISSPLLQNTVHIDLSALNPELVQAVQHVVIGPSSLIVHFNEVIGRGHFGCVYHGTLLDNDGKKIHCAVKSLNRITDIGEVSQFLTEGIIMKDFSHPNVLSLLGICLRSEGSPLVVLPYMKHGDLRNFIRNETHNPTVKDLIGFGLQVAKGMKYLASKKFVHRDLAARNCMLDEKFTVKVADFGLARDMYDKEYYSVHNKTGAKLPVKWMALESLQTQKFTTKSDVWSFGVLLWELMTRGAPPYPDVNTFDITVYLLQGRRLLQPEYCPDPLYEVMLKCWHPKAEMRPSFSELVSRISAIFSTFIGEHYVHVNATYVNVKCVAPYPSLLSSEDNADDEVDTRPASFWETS
Experimental: (§1) Cellular binding of the in total 75 humanized anti-c-Met antibodies (originating from the three selected chimeric antibodies) was studied in human c-Met-positive tumor cell lines MKN45, NCI-H596 and PC-3, rhesus c-Met-positive tumor cell line 4 MBr-5, and human c-Met-negative tumor cell line MDA-MB-175-VII. Cells were used around 90% of confluence at the time of an assay, detached with Trypsin-Versene (EDTA) (Lonza) for 5-10 minutes, washed and adjusted to a concentration of 1×10⁶ cells/mL in ice-cold FACS buffer (PBS 1×, 0.1% v/w BSA, 0.02% v/v sodium azide (NaN₃)). Staining was performed in 96-well round-bottomed microtiter plates using ice-cold reagents/solutions at 4° C. to prevent the modulation and internalization of surface antigens. 100,000 cells/well were added to 96-well plates (100 μL/well) and centrifuged at 300×g for 3 minutes. In case of pre-incubation with HGF, the cells were resuspended in 50 ng/mL recombinant human HGF in FACS buffer (50 μL/well) and incubated for 30 minutes at 4° C., followed by two wash steps with 150 μL FACS buffer. Supernatant was discarded and cells were stained for 30 minutes with 50 μL of each antibody. Serial dilutions were made in ice-cold FACS buffer. Cells were washed twice by centrifugation at 300×g for 3 minutes and resuspended in 50 μL 6000-times diluted secondary F(ab′)₂ goat anti-human IgG (Fc fragment specific) antibody APC-conjugated (Jackson ImmunoResearch). Following a 30-minute incubation on ice, cells were washed again 2 times and resuspended in 150 μL ice-cold FACS buffer for FACS analysis. For analysis of the data, the Median Fluorescence Intensity (MFI) values were obtained.

[2] = target: T1, human c-Met (HGFR), full length, on the …; experiment: flow cytometry, MKN45 cells, without HGF
Experimental: as §1

[3] = target: T1, human c-Met (HGFR), full length, on the …; experiment: flow cytometry, PC-3 cells, without HGF
Experimental: as §1

[4] = target: T2, rhesus c-Met on 4MBr-5 cells (rhesus, UniProt F7H1K4 25-1381, Natural c-Met is cleaved at the furin site (KRKKR/S) into disulphide-linked alpha and beta subunits; given here as one mature polypeptide.); experiment: flow cytometry, 4MBr-5 cells; EC50 with 50 ng/mL HGF against EC50 without HGF
T2 construct: also called rhesus c-Met antigen
T2 sequence (F7H1K4 entry or part of it limits assumed): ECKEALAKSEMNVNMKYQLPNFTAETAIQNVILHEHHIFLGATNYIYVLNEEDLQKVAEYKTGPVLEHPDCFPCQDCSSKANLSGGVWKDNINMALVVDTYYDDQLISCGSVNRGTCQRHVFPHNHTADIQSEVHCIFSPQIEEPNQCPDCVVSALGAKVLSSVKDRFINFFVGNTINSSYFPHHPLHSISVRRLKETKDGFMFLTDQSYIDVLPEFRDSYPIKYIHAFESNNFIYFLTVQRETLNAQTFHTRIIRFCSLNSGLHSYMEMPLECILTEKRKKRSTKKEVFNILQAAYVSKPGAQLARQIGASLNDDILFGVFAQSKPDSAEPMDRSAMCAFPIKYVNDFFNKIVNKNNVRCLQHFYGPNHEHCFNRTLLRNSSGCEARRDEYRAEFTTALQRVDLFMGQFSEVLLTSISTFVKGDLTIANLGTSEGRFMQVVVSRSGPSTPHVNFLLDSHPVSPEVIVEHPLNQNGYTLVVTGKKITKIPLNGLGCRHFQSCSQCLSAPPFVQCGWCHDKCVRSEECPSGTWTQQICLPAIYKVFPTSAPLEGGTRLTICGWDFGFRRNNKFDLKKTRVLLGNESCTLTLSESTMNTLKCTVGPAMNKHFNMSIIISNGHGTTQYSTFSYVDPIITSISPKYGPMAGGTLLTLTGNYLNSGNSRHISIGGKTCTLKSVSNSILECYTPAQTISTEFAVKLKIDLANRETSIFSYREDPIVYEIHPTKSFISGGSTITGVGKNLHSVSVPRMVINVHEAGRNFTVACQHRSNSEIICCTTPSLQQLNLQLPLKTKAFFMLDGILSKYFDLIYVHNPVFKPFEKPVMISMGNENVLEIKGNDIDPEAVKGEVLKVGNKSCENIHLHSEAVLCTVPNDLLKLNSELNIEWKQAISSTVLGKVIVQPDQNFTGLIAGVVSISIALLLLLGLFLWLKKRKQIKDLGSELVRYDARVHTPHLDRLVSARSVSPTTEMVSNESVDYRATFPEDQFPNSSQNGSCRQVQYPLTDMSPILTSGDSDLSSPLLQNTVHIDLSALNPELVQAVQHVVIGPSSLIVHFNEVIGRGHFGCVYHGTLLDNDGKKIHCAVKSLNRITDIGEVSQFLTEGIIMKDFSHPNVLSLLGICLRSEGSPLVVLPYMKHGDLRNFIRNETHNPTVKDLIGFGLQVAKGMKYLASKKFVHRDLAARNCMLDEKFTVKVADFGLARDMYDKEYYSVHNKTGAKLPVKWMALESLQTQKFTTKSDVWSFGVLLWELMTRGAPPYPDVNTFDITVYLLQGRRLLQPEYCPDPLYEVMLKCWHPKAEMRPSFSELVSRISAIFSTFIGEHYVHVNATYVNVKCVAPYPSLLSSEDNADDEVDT
Experimental: as §1

[5] = target: T1, human c-Met (HGFR), full length, on the …; experiment: flow cytometry, PC-3 cells; EC50 with 50 ng/mL HGF against EC50 without HGF
Experimental: as §1

[6] = target: T1, human c-Met (HGFR), full length, on the …; experiment: flow cytometry, PC-3 cells pre-incubated with 50 ng/mL HGF
Experimental: as §1

[7] = target: T2, rhesus c-Met on 4MBr-5 cells; experiment: flow cytometry, 4MBr-5 cells, without HGF
Experimental: as §1

[8] = target: T2, rhesus c-Met on 4MBr-5 cells; experiment: flow cytometry, 4MBr-5 cells pre-incubated with 50 ng/mL HGF
Experimental: as §1

[9] = target: T1, human c-Met (HGFR), full length, on the …; experiment: flow cytometry, NCI-H596 cells, without HGF
Experimental: as §1

[10] = target: T1, human c-Met (HGFR), full length, on the …; experiment: flow cytometry, NCI-H596 cells pre-incubated with 50 ng/mL HGF
Experimental: as §1

[11] = target: T1, human c-Met (HGFR), full length, on the …; experiment: flow cytometry on MKN45, NCI-H596 and PC-3 cells
Experimental: as §1, with “14 wild-type chimeric and the 14 HC-41C chimeric” for “in total 75 humanized”, “antibodies” for “antibodies (originating from the three selected chimeric antibodies)”, “HGF (paracrine cell lines only),” for “HGF,”

Row | Binder | Fold shift (HGF) [1] | EC50 [2] | EC50 [3] | Fold shift (HGF) [4] | Fold shift (HGF) [5] | EC50 [6] | EC50 [7] | EC50 [8] | EC50 [9] | EC50 [10] | binding result [11]
1 | mAb2c (antibody, human IgG1, kappa, V domains shown, Humanized IgG1 kappa, HC-41C, from wt/41C-chi-mAb2; also called humanized HC-41C antibody mAb2c) VH: QVQLVQSGAEVKKPGSSVKVSCKASGYVFPDYEMHWVRQACGQGLEWMGAFDPETGDTTYNQNFKGRVTITADKSTSTAYMELSSLRSEDTAVYYCARDYKYLYYYAMDNWGQGTTVTVSS VL: EIVLTQSPSLLSASIGDRVTIPCTASSSITSSYLHWYQQKPGKAPKLLIYSTTNLASGVPSRFSGSGSGTEFTLTISSLQPEDFATYYCHQYRRSPLTFGGGTKLEIKR | 3.3 fold | 0.11 µg/mL | 0.03 µg/mL | 1.2 fold | 3.1 fold | 0.09 µg/mL | 0.07 µg/mL | 0.09 µg/mL | 0.03 µg/mL | 0.1 µg/mL | –
2 | mAb2b (antibody, human IgG1, kappa, V domains shown, Humanized IgG1 kappa, HC-41C, from wt/41C-chi-mAb2; also called humanized HC-41C antibody mAb2b) VH: QVQLVQSGAEVKKPGSSVKVSCKASGYVFPDYEMHWVRQACGQGLEWMGAFDPETGDTTYNQNFKGRVTITADKSTSTAYMELSSLRSEDTAVYYCARDYKYLYYYAMDNWGQGTTVTVSS VL: DIQMTQSPSSLSASVGDRVTITCTASSSITSSYLHWYQQKPGKAPKLLIYSTTNLASGVPSRFSGSGSGTDFTLTISSLQPEDFATYYCHQYRRSPLTFGGGTKLEIKR | 2.8 fold | 0.14 µg/mL | 0.05 µg/mL | 1.7 fold | 2.6 fold | 0.13 µg/mL | 0.09 µg/mL | 0.15 µg/mL | 0.04 µg/mL | 0.11 µg/mL | –
3 | mAb2a (antibody, human IgG1, kappa, V domains shown, Humanized IgG1 kappa, HC-41C, from wt/41C-chi-mAb2; also called humanized HC-41C antibody mAb2a) VH: QVQLVQSGAELRKPGSSVKVSCRASGYVFPDYEMHWVRQACGQGLEWMGAFDPETGDTTYNQNFKGRVTIAADKSTSTAYMELRSLRSEDTAIYYCARDYKYLYYYAMDNWGQGTMVTVSS VL: EIVLTQSPSLLSASIGDRVTIPCTASSSITSSYLHWYQQKPGKAPKLLIYSTTNLASGVPSRFSGSGSGTEFTLTISSLQPEDFATYYCHQYRRSPLTFGGGTKLEIKR | 4 fold | 0.09 µg/mL | 0.04 µg/mL | 1.4 fold | 2.3 fold | 0.09 µg/mL | 0.06 µg/mL | 0.09 µg/mL | 0.02 µg/mL | 0.08 µg/mL | –
4 | mAb3c (antibody, human IgG1, kappa, V domains shown, Humanized IgG1 kappa, HC-41C, from wt/41C-chi-mAb3; also called humanized HC-41C antibody mAb3c) VH: QVQLVQSGAEVKKPGASVKVSCKASGYTFTDYYLNWVRQACGQGLEWMGLIFPGNDKTEYSEKFKGRVTLTTDTSISTAYMELSSLTSDDTALYYCSGGDYGGFVYWGQGTLVTVSS VL: DIQMTQSPSSLSASVGDRVTITCGASENIYGALNWYQQKPGKAPKLLIYGATNLADGVPSRFSGSGSGTDFTLTISSLQPEDVATYYCQNVLSSPLTFGSGTKLEIKR | 5.5 fold | 0.05 µg/mL | 0.03 µg/mL | 1.7 fold | 1.9 fold | 0.06 µg/mL | 0.02 µg/mL | 0.03 µg/mL | 0.02 µg/mL | 0.11 µg/mL | –
5 | mAb3d (antibody, human IgG1, kappa, V domains shown, Humanized IgG1 kappa, HC-41C, from wt/41C-chi-mAb3; also called humanized HC-41C antibody mAb3d) VH: QVQLQESGAEVKKPGASVKVSCKASGYTFTDYYLNWVRQACGQGLEWMGLIFPGNDKTEYSEKFKGRVTMTRDTSTSTVYMELSSLRSEDTAVYYCSGGDYGGFVYWGQGTLVTVSS VL: DIQLTQSPSSLSASVGDRVTITCGASENIYGALNWYQQKPGKAPKLLIYGATNLADGVPSRFSGSGSGTDFTLTISSLQPEDFATYYCQNVLSSPLTFGPGTKVDIKR | 7.5 fold | 0.07 µg/mL | 0.03 µg/mL | 1.6 fold | 2.7 fold | 0.08 µg/mL | 0.03 µg/mL | 0.05 µg/mL | 0.02 µg/mL | 0.15 µg/mL | –
6 | mAb3e (antibody, human IgG1, kappa, V domains shown, Humanized IgG1 kappa, HC-41C, from wt/41C-chi-mAb3; also called humanized HC-41C antibody mAb3e) VH: QVQLQESGAEVKKPGASVKVSCKASGYTFTDYYLNWVRQACGQGLEWMGLIFPGNDKTEYSEKFKGRVTMTRDTSTSTVYMELSSLRSEDTAVYYCSGGDYGGFVYWGQGTLVTVSS VL: DIQMTQSPSSLSASVGDRVTITCGASENIYGALNWYQQKPGKAPKLLIYGATNLADGVPSRFSGSGSGTDFTLTISSLQPEDVATYYCQNVLSSPLTFGSGTKLEIKR | 7 fold | 0.07 µg/mL | 0.03 µg/mL | 1.4 fold | 2.8 fold | 0.09 µg/mL | 0.03 µg/mL | 0.04 µg/mL | 0.02 µg/mL | 0.14 µg/mL | –
7 | mAb3a (antibody, human IgG1, kappa, V domains shown, Humanized IgG1 kappa, HC-41C, from wt/41C-chi-mAb3; also called humanized HC-41C antibody mAb3a) VH: QVQLVQSGAEVKKPGASVKVSCKASGYTFTDYYLNWVRQACGQGLEWMGLIFPGNDKTEYSEKFKGRVTLTTDTSISTAYMELSSLTSDDTALYYCSGGDYGGFVYWGQGTLVTVSS VL: DIQLTQSPSSLSASVGDRVTITCGASENIYGALNWYQQKPGKAPKLLIYGATNLADGVPSRFSGSGSGTDFTLTISSLQPEDFATYYCQNVLSSPLTFGPGTKVDIKR | 4 fold | 0.07 µg/mL | 0.03 µg/mL | 0.8 fold | 2.4 fold | 0.07 µg/mL | 0.04 µg/mL | 0.03 µg/mL | 0.02 µg/mL | 0.08 µg/mL | –
8 | wt-chi-mAb1 (antibody, human IgG1, kappa, V domains shown, Mouse/human chimeric IgG1 kappa; also called wild-type chimeric antibody mAb1) VH: EVQLQQSGPELLKPGASVKMSCKASGYIFTDYFMNWVKQSHGKSLEWIGRVNPKNGDITYNQKFRGKATLTVDKSLTTAYMQLNSLTSEDSAVYFCAYDGYYDGMDFWGQGTSVTVSS VL: ENVLTQSPAIMSASPGEKVTMTCRANSSVSSNFLHWYQQKSGASPKLWISSTSNLAFGVPPRFSGSGSGTSYSLTISSVEAEDAATYYCHQYSGHPFTFGSGTKLEIKR | – | – | – | – | – | – | – | – | – | – | binds
9 | mAb1a (antibody, human IgG1, kappa, V domains shown, Humanized IgG1 kappa, HC-41C, from wt/41C-chi-mAb1; also called humanized HC-41C antibody mAb1a; mAbla) VH: QVQLVQSGAEVKKPGASVKVSCKASGYIFTDYFMNWVRQACGQGLEWMGRVNPKNGDITYNQKFRGRVSLTKDTSINTAYMELSGLTSDDTAIYYCAYDGYYDGMDFWGQGTSVTVSS VL: ELVMTQSPSSLSASVGDRVTITCRANSSVSSNFLHWYQQKPGKAPKLLISSTSNLAFGVPSRFSGTGSGTDFSLTISSLQPEDFAIYYCHQYSGHPFTFGQGTKLEIKR | 2.5 fold | 0.16 µg/mL | 0.08 µg/mL | 1.1 fold | 1.9 fold | 0.15 µg/mL | 0.07 µg/mL | 0.08 µg/mL | 0.04 µg/mL | 0.1 µg/mL | –
